Experimental findings from US20210292396A1 are described below.

In the assay the target is HIV Env of isolate 3817.v2.c59 (HIV). In words: cell-based or functional assay.

B1: ePGT121.15.H2.L1 (antibody, V domains shown)
VH: QMQLQESGPGLVKPGETLSLTCSVSGASISSSYWSWLRETPGKGLEWIGYTHHSGDTNYAPSLKSRVHLGLHPSKNQVSLSLTSVTAADTAVYYCARTLHGRRIYGVVAFNEWFTYFYWEVWGKGTQVTVSS
VL: SDISVAPGETVRISCGGESIGSRAVQWYQHRAGQAPKLIIYNNQDRPPGIPERFSGSPDIDFGTTATLTITNVEAGDEATYYCHIWDSRRPTNWVFGGGTTLTVL
B1 showed a neutralization (Table 6 value) of 0.00328.
